Reference: US20230104217A1

Key:
[1] = biological target: Human IL-2 R beta protein, His-Tag (Acro, CD2-H5221) (human) (UniProt P14784); assay: BLI; conditions: ligand
[2] = biological target: Human IL-2 R alpha protein, His Tag (Acro, ILA-H52H9) (human) (UniProt P01589); assay: BLI; conditions: ligand
UniProt P01589, sequence (P01589 22-213): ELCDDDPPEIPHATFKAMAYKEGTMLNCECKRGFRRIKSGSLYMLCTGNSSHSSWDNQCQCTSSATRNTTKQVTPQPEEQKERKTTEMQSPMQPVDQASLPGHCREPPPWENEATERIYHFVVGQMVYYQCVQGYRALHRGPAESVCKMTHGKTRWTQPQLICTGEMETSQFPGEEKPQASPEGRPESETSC

UniProt P14784, sequence (P14784 27-239): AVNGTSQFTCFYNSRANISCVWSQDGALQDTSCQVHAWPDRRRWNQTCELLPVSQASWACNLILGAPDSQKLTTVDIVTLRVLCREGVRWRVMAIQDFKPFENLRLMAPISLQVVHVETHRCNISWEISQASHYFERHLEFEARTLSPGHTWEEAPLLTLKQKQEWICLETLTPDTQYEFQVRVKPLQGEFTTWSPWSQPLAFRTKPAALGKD

Kd [1]: 91.7 nM | Kd [2]: 1.3 nM
Substance: Proleukin (Novartis, hIL-2) (from UniProt P60568 22-153)
